Experimental data taken from PMC6687821, “Brain-targeted drug delivery by manipulating protein corona functions” (Nature Communications, 2019).

Target: T1, mouse plasma ApoE (mouse (endogenous in BALB/c plasma), UniProt P08226 19-311)
T1 construct: apolipoprotein E, mouse, band of 36 kDa identified by nano-LC-MS/MS; also called apolipoprotein E; source: endogenous, BALB/c mouse plasma (in vitro) or blood of injected BALB/c mice (in vivo)
T1 sequence (looked up): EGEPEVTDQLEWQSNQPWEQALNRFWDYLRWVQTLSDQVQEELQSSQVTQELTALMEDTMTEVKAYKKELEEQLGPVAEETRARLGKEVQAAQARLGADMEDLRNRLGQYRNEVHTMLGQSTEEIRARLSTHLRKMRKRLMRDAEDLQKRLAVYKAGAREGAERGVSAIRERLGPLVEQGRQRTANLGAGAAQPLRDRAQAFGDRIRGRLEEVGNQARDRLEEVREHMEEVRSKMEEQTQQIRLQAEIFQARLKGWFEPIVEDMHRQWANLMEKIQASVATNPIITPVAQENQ
Assay: radioligand binding; SP-sLip (100 μL, 10 mg/mL) with mouse plasma (100 μL) at 37 °C for 1 h, then I-125 rhLRP1 (6 μCi, 0.5 μg) for 1 h at 37 °C; pellet at 19k RCF 30 min, three washes with cold PBS, gamma counter; plain sLip as control
Details: one partner purified

B1: I-125 radiolabeled recombinant human LRP1 Cluster II Fc Chimera, Human IgG1 (Fc fusion, UniProt Q07954 852-1182, looked up)
chain: PQCQPGEFACANSRCIQERWKCDGDNDCLDNSDEAPALCHQHTCPSDRFKCENNRCIPNRWLCDGDNDCGNSEDESNATCSARTCPPNQFSCASGRCIPISWTCDLDDDCGDRSDESASCAYPTCFPLTQFTCNNGRCININWRCDNDNDCGDNSDEAGCSHSCSSTQFKCNSGRCIPEHWTCDGDNDCGDYSDETHANCTNQATRPPGGCHTDEFQCRLDGLCIPLRWRCDGDTDCMDSSDEKSCEGVTHVCDPSVKFGCKDSARCISKAWVCDGDNDCEDNSDEENCESLACRPPSHPCANNTSVCLPPDKLCDGNDDCGDGSDEGELC
modifications: I-125 radiolabel (residues not stated)
notes: Same bought protein as m6, radiolabeled; the labelling method is not described; also called I^125 radiolabeled rhLRP1; radiolabeled rhLRP1; source: bought: R&D system, then I-125 radiolabeled
fold of rhLRP1 absorbed on SP-sLip over plain sLip, after preincubation with mouse plasma: 8.4 fold
